We go through one substance from patent US20170267756A1.

Experiment [1] deals with anti-CD19 T-ChARM^3 with 4-1BB/CD3ζ effector domain. The experiment can be described thus: immunomagnetic selection on a MACS column of T-ChARM3 T cells mixed with control T cells with StrepTactin Microbeads 1#; retained fraction stained with anti-Strep tag-FITC, flow cytometry; 30.2 before enrichment [Continued]. Background: Flow cytometry measures light scatter and fluorescence of single cells or particles in a stream.

For experiment [2], the target named is anti-CD19 CAR (short), IgG4 hinge only, 4-1BB/CD3ζ, no tag. In words: flow cytometry of CD19(Short) CAR T cells (no tag, control); gated FSC/SSC, PI-negative, CD4+; StrepTactin-APC lot 5010-1015; gate from 10^3 on the APC-A axis [Continued].
Experiment [3] addresses anti-CD19 T-ChARM^2 with 4-1BB/CD3ζ effector domain. The experiment can be described thus: flow cytometry of CD19-ChARM2 T cells; gated FSC/SSC, PI-negative, CD4+; StrepTactin-APC lot 5010-1015; gate from 10^3 on the APC-A axis [Continued].
For experiment [4], the target named is anti-CD19 CAR (short), IgG4 hinge only, 4-1BB/CD3ζ, no tag. The experiment can be described thus: flow cytometry of CD19(Short) CAR T cells (no tag, control); gated FSC/SSC, PI-negative, CD4+; StrepTactin-APC lot 5010-1018; gate from 10^3 on the APC-A axis [Continued].
The target in experiment [5] is anti-CD19 T-ChARM^3 with 4-1BB/CD3ζ effector domain. In words: immunomagnetic selection on a MACS column of T-ChARM3 T cells mixed with control T cells with StrepTactin Microbeads 2#; retained fraction stained with anti-Strep tag-FITC, flow cytometry; 30.2 before enrichment [Continued].
Experiment [6] has the same target. In words: flow cytometry of CD19-ChARM3 T cells; gated FSC/SSC, PI-negative, CD4+; StrepTactin-APC lot 5010-1018; gate from 10^3 on the APC-A axis [Continued].
For experiment [7] the target is unchanged. In words: flow cytometry of CD19-ChARM3 T cells; gated FSC/SSC, PI-negative, CD4+; StrepTactin-APC lot 5010-1015; gate from 10^3 on the APC-A axis [Continued].
In experiment [8] the target is anti-CD19 T-ChARM^2 with 4-1BB/CD3ζ effector domain. In words: flow cytometry of CD19-ChARM2 T cells; gated FSC/SSC, PI-negative, CD4+; StrepTactin-APC lot 5010-1018; gate from 10^3 on the APC-A axis [Continued].
Experiment [9] addresses anti-CD19 T-ChARM^3 with 4-1BB/CD3ζ effector domain. In words: immunomagnetic selection on a MACS column of T-ChARM3 T cells mixed with control T cells with StrepTactin Microbeads 1#; effluent (not retained) stained with anti-Strep tag-FITC, flow cytometry; 30.2 before enrichment [Continued].
For experiment [10] the target is unchanged. In words: immunomagnetic selection on a MACS column of T-ChARM3 T cells mixed with control T cells with StrepTactin Nanobeads 3#; retained fraction stained with anti-Strep tag-FITC, flow cytometry; 30.2 before enrichment [Continued].

For the substance Strep-Tactin, the values for the percent STII (FITC-A) positive cells in the bead-retained fraction (Enrichment) in experiment [1], in experiment [5] and in [10] were 77.7%, 87% and 80.5%, respectively. The percent of cells in the StrepTactin-APC (APC-A) positive gate in experiment [2] is 18.1%; in experiment [3], 92%; in experiment [4], 24.9%; in experiment [6], 96.5%; in experiment [7] it was 94.7%; in experiment [8], 93.5%. For the same substance, in experiment [9], the percent STII (FITC-A) positive cells in the column effluent is 9.91%.
